Measured values from US20140274782A1, “AFFINITY REAGENTS AND METHODS FOR DETECTION, PURIFICATION, AND PROTEOMIC ANALYSIS OF METHYLATED PROTEINS” (The Board of Trustees of the Leland Stanford Junior …, priority 2013, published 2014).

T1: G9a and GLP (Homo sapiens, UniProt Q96KQ7+Q9H9B1)
T1 sequence (Q96KQ7 2-1210 limits assumed): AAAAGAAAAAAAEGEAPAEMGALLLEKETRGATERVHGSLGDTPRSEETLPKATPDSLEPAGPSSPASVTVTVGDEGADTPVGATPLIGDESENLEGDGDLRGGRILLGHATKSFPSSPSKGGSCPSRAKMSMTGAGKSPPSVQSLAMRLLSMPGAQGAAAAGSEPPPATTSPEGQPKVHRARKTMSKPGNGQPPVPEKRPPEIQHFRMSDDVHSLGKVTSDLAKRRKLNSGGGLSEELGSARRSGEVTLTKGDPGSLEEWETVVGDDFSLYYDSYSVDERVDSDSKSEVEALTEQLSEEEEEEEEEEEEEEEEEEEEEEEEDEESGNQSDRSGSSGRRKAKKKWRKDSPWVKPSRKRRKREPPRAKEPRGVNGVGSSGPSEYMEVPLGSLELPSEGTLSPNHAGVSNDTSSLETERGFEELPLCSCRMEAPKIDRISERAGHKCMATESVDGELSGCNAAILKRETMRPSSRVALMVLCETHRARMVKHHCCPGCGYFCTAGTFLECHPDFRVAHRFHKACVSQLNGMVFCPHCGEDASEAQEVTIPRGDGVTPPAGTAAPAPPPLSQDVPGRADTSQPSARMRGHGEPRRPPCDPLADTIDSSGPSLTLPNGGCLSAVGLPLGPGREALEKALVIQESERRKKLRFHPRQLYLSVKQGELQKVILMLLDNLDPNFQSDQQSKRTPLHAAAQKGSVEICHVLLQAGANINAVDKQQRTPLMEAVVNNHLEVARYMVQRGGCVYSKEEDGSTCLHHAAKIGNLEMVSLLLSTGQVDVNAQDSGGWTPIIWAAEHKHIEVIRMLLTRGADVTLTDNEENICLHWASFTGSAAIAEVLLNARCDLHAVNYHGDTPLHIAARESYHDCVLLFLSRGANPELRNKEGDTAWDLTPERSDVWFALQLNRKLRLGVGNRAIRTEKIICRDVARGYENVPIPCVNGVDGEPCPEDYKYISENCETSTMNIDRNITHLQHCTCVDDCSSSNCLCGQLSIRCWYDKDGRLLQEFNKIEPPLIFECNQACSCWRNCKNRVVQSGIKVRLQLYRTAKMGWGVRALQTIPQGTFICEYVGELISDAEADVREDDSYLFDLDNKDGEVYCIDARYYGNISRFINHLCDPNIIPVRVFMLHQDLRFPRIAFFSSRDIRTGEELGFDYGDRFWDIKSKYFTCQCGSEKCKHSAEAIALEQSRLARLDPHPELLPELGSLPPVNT
T1 sequence (Q9H9B1 2-1298 limits assumed): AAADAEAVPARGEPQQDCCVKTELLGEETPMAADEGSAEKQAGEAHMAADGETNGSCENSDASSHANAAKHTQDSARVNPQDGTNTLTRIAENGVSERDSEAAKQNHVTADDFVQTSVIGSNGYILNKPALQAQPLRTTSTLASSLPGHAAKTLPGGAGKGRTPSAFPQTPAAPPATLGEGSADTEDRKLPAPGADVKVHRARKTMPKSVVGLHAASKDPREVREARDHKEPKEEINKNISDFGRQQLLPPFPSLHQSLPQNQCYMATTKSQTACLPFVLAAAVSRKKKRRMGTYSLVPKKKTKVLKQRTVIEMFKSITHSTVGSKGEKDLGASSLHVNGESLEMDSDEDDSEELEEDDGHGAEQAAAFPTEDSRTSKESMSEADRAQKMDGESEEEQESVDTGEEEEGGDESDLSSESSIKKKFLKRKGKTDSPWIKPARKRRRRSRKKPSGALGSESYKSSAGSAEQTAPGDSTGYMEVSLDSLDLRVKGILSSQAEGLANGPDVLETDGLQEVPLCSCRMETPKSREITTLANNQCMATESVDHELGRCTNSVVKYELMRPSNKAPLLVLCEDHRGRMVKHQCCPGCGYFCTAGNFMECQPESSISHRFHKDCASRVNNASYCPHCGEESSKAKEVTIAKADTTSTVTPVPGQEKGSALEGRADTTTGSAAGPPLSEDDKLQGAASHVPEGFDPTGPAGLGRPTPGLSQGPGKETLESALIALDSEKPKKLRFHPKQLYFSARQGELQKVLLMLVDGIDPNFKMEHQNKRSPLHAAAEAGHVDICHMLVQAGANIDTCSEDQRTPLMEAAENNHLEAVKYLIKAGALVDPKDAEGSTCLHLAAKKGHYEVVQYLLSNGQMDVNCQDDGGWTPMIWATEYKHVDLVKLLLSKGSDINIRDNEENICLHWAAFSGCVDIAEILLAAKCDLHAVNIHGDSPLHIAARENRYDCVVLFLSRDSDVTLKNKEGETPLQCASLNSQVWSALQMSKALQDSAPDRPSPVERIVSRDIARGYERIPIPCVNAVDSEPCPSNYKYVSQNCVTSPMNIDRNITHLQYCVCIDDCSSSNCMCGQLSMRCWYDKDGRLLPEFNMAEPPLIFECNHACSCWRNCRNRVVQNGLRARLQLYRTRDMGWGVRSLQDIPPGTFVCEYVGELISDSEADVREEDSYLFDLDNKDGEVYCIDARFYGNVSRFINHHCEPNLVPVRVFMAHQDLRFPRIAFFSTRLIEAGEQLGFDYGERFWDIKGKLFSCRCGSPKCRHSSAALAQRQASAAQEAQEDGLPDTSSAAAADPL

B1: TK1 (protein, UniProt P04183 2-234, looked up)
Thymidine kinase, cytosolic: SCINLPTVLPGSPSKTRGQIQVILGPMFSGKSTELMRRVRRFQIAQYKCLVIKYAKDTRYSSSFCTHDRNTMEALPACLLRDVAQEALGVAVIGIDEGQFFPDIVEFCEAMANAGKTVIVAALDGTFQRKPFGAILNLVPLAESVVKLTAVCMECFREAAYTKRLGTEKEVEVIGGADKYHSVCRLCYFKKASGQPAGPDNKENCPVPGKPGEAVAARKLFAPQQILQCSPAN
B2: TRIM28 (protein, UniProt Q13263 2-835, looked up)
Transcription intermediary …: AASAAAASAAAASAASGSPGPGEGSAGGEKRSTAPSAAASASASAAASSPAGGGAEALELLEHCGVCRERLRPEREPRLLPCLHSACSACLGPAAPAAANSSGDGGAAGDGTVVDCPVCKQQCFSKDIVENYFMRDSGSKAATDAQDANQCCTSCEDNAPATSYCVECSEPLCETCVEAHQRVKYTKDHTVRSTGPAKSRDGERTVYCNVHKHEPLVLFCESCDTLTCRDCQLNAHKDHQYQFLEDAVRNQRKLLASLVKRLGDKHATLQKSTKEVRSSIRQVSDVQKRVQVDVKMAILQIMKELNKRGRVLVNDAQKVTEGQQERLERQHWTMTKIQKHQEHILRFASWALESDNNTALLLSKKLIYFQLHRALKMIVDPVEPHGEMKFQWDLNAWTKSAEAFGKIVAERPGTNSTGPAPMAPPRAPGPLSKQGSGSSQPMEVQEGYGFGSGDDPYSSAEPHVSGVKRSRSGEGEVSGLMRKVPRVSLERLDLDLTADSQPPVFKVFPGSTTEDYNLIVIERGAAAAATGQPGTAPAGTPGAPPLAGMAIVKEEETEAAIGAPPTATEGPETKPVLMALAEGPGAEGPRLASPSGSTSSGLEVVAPEGTSAPGGGPGTLDDSATICRVCQKPGDLVMCNQCEFCFHLDCHLPALQDVPGEEWSCSLCHVLPDLKEEDGSLSLDGADSTGVVAKLSPANQRKCERVLLALFCHEPCRPLHQLATDSTFSLDQPGGTLDLTLIRARLQEKLSPPYSSPQEFAQDVGRMFKQFNKLTEDKADVQSIIGLQRFFETRMNEAFGDTKFSAVLVEPPPMSLPGAGLSSQELSGGPGDGP
B3: MRE11A (protein, UniProt P49959 2-708, looked up)
Double-strand break repair …: STADALDDENTFKILVATDIHLGFMEKDAVRGNDTFVTLDEILRLAQENEVDFILLGGDLFHENKPSRKTLHTCLELLRKYCMGDRPVQFEILSDQSVNFGFSKFPWVNYQDGNLNISIPVFSIHGNHDDPTGADALCALDILSCAGFVNHFGRSMSVEKIDISPVLLQKGSTKIALYGLGSIPDERLYRMFVNKKVTMLRPKEDENSWFNLFVIHQNRSKHGSTNFIPEQFLDDFIDLVIWGHEHECKIAPTKNEQQLFYISQPGSSVVTSLSPGEAVKKHVGLLRIKGRKMNMHKIPLHTVRQFFMEDIVLANHPDIFNPDNPKVTQAIQSFCLEKIEEMLENAERERLGNSHQPEKPLVRLRVDYSGGFEPFSVLRFSQKFVDRVANPKDIIHFFRHREQKEKTGEEINFGKLITKPSEGTTLRVEDLVKQYFQTAEKNVQLSLLTERGMGEAVQEFVDKEEKDAIEELVKYQLEKTQRFLKERHIDALEDKIDEEVRRFRETRQKNTNEEDDEVREAMTRARALRSQSEESASAFSADDLMSIDLAEQMANDSDDSISAATNKGRGRGRGRRGGRGQNSASRGGSQRGRADTGLETSTRSRNSKTAVSASRNMSIIDAFKSTRQQPSRNVTTKNYSEVIEVDESDVEEDIFPTTSKTDQRWSSTSSSKIMSQSQVSKGVDFESSEDDDDDPFMNTSSLRRNRR
B4: TUBA1C (protein, UniProt Q9BQE3 1-449, looked up)
Tubulin alpha-1C chain: MRECISIHVGQAGVQIGNACWELYCLEHGIQPDGQMPSDKTIGGGDDSFNTFFSETGAGKHVPRAVFVDLEPTVIDEVRTGTYRQLFHPEQLITGKEDAANNYARGHYTIGKEIIDLVLDRIRKLADQCTGLQGFLVFHSFGGGTGSGFTSLLMERLSVDYGKKSKLEFSIYPAPQVSTAVVEPYNSILTTHTTLEHSDCAFMVDNEAIYDICRRNLDIERPTYTNLNRLISQIVSSITASLRFDGALNVDLTEFQTNLVPYPRIHFPLATYAPVISAEKAYHEQLTVAEITNACFEPANQMVKCDPRHGKYMACCLLYRGDVVPKDVNAAIATIKTKRTIQFVDWCPTGFKVGINYQPPTVVPGGDLAKVQRAVCMLSNTTAVAEAWARLDHKFDLMYAKRAFVHWYVGEGMEEGEFSEAREDMAALEKDYEEVGADSADGEDEGEEY

Columns and labels:
3×MBT domain of L3MBTL1 = experiment: Triple SILAC pull-down, 3xMBT/3xMBTD355N ratio (cytoplasmic, nuclear and chromatin fractions of 293T cells); format: binding, human; conditions: SILAC ratio 3xMBT vs 3xMBTD355N pull-down, 293T cells, all values in log base 2; for 3xMBT/D355N UNC Heavy: experiment with UNC0638 in heavy SILAC media; for 3xMBT/D355N UNC Light: experiment with UNC0638 in light SILAC media;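 on all read-outs here: proteins quantified with MaxQuant, requiring at least two unique peptides and quantification in both label directions, normalized to the mean of proteins from a digested loading control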
G9a and GLP = biological target: T1, G9a and GLP; experiment: Triple SILAC pull-down after UNC0638 treatment of 293T cells, DMSO/UNC0638 ratio of protein captured by 3×MBT; format: cell-based; set-up: cells were treated for 24 hours with UNC0638 at 2.5 μM or DMSO vehicle control; endogenous in cells; host or cells: HEK 293T; conditions: all values in log base 2; for Relative to UNC0638 UNC Heavy / Relative to UNC0638 UNC Light: SILAC ratio DMSO relative to UNC0638, pull-down with 3xMBT; for Relative to UNC0638 UNC Heavy: UNC0638 in heavy SILAC media; for Relative to UNC0638 UNC Light: UNC0638 in light SILAC media; for Relative to UNC0638 Average: average of UNC Light and UNC Heavy experiments;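 on all read-outs here: mass spectrometry (Q-Exactive) SILAC quantitation, DMSO/UNC0638 ratio computed after subtracting 3×MBTD355N mutant pull-down background, only proteins with at least twofold 3×MBT over mutant signal considered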

Row | Molecule | 3xMBT/D355N UNC Heavy (3×MBT domain of L3MBTL1) [log base 2] | 3xMBT/D355N UNC Light (3×MBT domain of L3MBTL1) [log base 2] | Relative to UNC0638 UNC Heavy (G9a and GLP) [log base 2] | Relative to UNC0638 UNC Light (G9a and GLP) [log base 2] | Relative to UNC0638 Average (G9a and GLP) [log base 2]
1 | B1 | 2.89 | 2.36 | 0.63 | −0.50 | 0.07
2 | B2 | 1.05 | 1.28 | 0.01 | 0.10 | 0.06
3 | B3 | 1.35 | 2.06 | 0.07 | 0.07 | 0.07
4 | B4 | 0.42 | 1.45 | −0.83 | 0.93 | 0.05
